# Reference: publication PMC3902943
# B1: S1m aptamer (60 nt) (structured_RNA)
# RNA: AUGCGGCCGCCGACCAGAAUCAUGCAAGUGCGUAAGAUAGUCGCGGGUCGGCGGCCGCAU
# Molecular target: streptavidin (SA) (UniProt P22629 25-183)
# Experiment: EMSA
# Sequence of streptavidin (SA) (P22629 25-183): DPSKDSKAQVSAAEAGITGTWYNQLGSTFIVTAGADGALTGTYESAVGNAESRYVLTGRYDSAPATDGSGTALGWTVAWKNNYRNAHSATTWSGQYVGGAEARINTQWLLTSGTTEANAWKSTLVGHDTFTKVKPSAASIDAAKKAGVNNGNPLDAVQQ
row,Binder,Kd
1,B1,29 nM
2,ACCGACCAGAAUCAUGCAAGUGCGUAAGAUAGUCGCGGGCCGGG (structured_RNA) [S1 aptamer (44 nt)],59 nM
